From patent US20110201024A1

Molecular target: hRLuc-connector-DhaA.H272F-Flag fusion protein with covalently bound biotin-C18H32O4- (after treatment with biotin-C18H32O4-Cl) (Renilla; Rhodococcus rhodochrous) (UniProt P0A3G2)
Assay: capture on streptavidin-coated 96 well plate after treatment with biotin-C18H32O4-Cl, read as luciferase activity

streptavidin (SA), coated on 96 well plates (Pierce) or on MagnaBind beads (Pierce #21344) (from UniProt P22629 37-163)
efficiency of capturing (percent of Renilla luciferase activity added to the plate): > 50%
